Source: publication PMC12524713

Columns and labels:
[1] = biological target: SARS-CoV-2 3-chymotrypsin-like protease (3CL^pro) (SARS-CoV-2); assay: mass photometry; TwoMP mass photometer, proteins diluted in PBS to 10 nM, room temperature, 60 s; the monomer is too small to resolve
[2] = biological target: catalytic domain of matrix metalloproteinase-14 (MMP14) (human) (UniProt P50281); assay: SPR; cat-MMP14 amine-coupled on a CM5 chip (Biacore T200); 3CL^pro (0.062-20 uM) or PL^pro (0.041-10 uM) flowed in PBSP (20 mM phosphate pH 7.4, 137 mM NaCl, 2.7 mM KCl, 0.05% P20), 30 uL/min, 180 s association, 300 s dissociation, 25 C; 1:1 Langmuir kinetic fit, KD = kd/ka

Substance “SARS-CoV-2 3-chymotrypsin-like protease (3CL^pro) (enzyme)” has a stoichiometry N [1] of 2, a Kd [2] of 3.21 µM and a koff [2] of 0.0012 s⁻¹. It also gave a kon [2] of 386 M⁻¹ s⁻¹.
